Laboratory results from US8785135B2, “Mutant G-protein coupled receptors and methods for selecting them” (Heptares Therapeutics Limited, priority 2007, dated 2014).
Residue numbers refer to the chain shown, from its start. Names and notes keep the numbering of the source.

B1: C386A: NTR point mutant (protein, UniProt P20789 1-424, looked up, variant C386A)
Neurotensin receptor type 1: MHLNSSVPQGTPGEPDAQPFSGPQSEMEATFLALSLSNGSGNTSESDTAGPNSDLDVNTDIYSKVLVTAIYLALFVVGTVGNSVTAFTLARKKSLQSLQSTVHYHLGSLALSDLLILLLAMPVELYNFIWVHHPWAFGDAGCRGYYFLRDACTYATALNVASLSVERYLAICHPFKAKTLMSRSRTKKFISAIWLASALLAIPMLFTMGLQNRSGDGTHPGGLVCTPIVDTATVKVVIQVNTFMSFLFPMLVISILNTVIANKLTVMVHQAAEQGRVCTVGTHNGLEHSTFNMTIEPGRVQALRHGVLVLRAVVIAFVVCWLPYHVRRLMFCYISDEQWTTFLFDFYHYFYMLTNALFYVSSAINPILYNLVSANFRQVFLSTLAALCPGWRHRRKKRPTFSRKPNSMSSNHAFSTSATRETLY
B2: S108A: NTR point mutant (protein, UniProt P20789 1-424, looked up, variant S108A)
Neurotensin receptor type 1: B1 Neurotensin receptor type 1 with S108A, A386C
B3: K397A: NTR point mutant (protein, UniProt P20789 1-424, looked up, variant K397A)
Neurotensin receptor type 1: B1 Neurotensin receptor type 1 with A386C, K397A
B4: G209A: NTR point mutant (protein, UniProt P20789 1-424, looked up, variant G209A)
Neurotensin receptor type 1: B1 Neurotensin receptor type 1 with G209A, A386C
B5: M181A: NTR point mutant (protein, UniProt P20789 1-424, looked up, variant M181A)
Neurotensin receptor type 1: B1 Neurotensin receptor type 1 with M181A, A386C
B6: R392A: NTR point mutant (protein, UniProt P20789 1-424, looked up, variant R392A)
Neurotensin receptor type 1: B1 Neurotensin receptor type 1 with A386C, R392A
B7: D113A: NTR point mutant (protein, UniProt P20789 1-424, looked up, variant D113A)
Neurotensin receptor type 1: B1 Neurotensin receptor type 1 with D113A, A386C
B8: I116A: NTR point mutant (protein, UniProt P20789 1-424, looked up, variant I116A)
Neurotensin receptor type 1: B1 Neurotensin receptor type 1 with I116A, A386C
B9: H393A: NTR point mutant (protein, UniProt P20789 1-424, looked up, variant H393A)
Neurotensin receptor type 1: B1 Neurotensin receptor type 1 with A386C, H393A
B10: F358A: NTR point mutant (protein, UniProt P20789 1-424, looked up, variant F358A)
Neurotensin receptor type 1: B1 Neurotensin receptor type 1 with F358A, A386C
B11: Nag7m: NTR mutant F358A+A86L+I260A+F342A (protein)
chain: TSESDTAGPNSDLDVNTDIYSKVLVTAIYLALFVVGTVGNSVTLFTLARKKSLQSLQSTVHYHLGSLALSDLLILLLAMPVELYNFIWVHHPWAFGDAGCRGYYFLRDACTYATALNVASLSVERYLAICHPFKAKTLMSRSRTKKFISAIWLASALLAIPMLFTMGLQNRSGDGTHPGGLVCTPIVDTATVKVVIQVNTFMSFLFPMLVISILNTVAANKLTVMVHQAAEQGRVCTVGTHNGLEHSTFNMTIEPGRVQALRHGVLVLRAVVIAFVVCWLPYHVRRLMFCYISDEQWTTALFDFYHYFYMLTNALAYVSSAINPILYNLVSANFRQVFLSTLACLCPGWRHRRKKRPTFSRKPNSMSSNHAFSTSATRETLY

Experiment: Thermostability of NTR and mutants (3H-neurotensin binding)
Type: physicochemical
Details: for thermostability, 3H-neurotensin (agonist) binding after the heating step: heated in the absence of the agonist
Protocol: FIG. 12 Flow chart showing the two different assay formats of ligand (+) and ligand (−) used to determine receptor thermostability.
• 1. 340 site-directed mutants have been made between residues 61-400 of NTR. • 2. Initially, all of these mutants were assayed for thermostability using an assay measuring ^3H-neurotensin (agonist) binding after the heating step. […] Mutants tested for thermostability by heating in the absence of the agonist were re-tested using a slightly different assay where the mutants were heated in the presence of ^3H-neurotensin (Ligand(+) format in FIG. 12). […] All of these also have increased thermostability. • 5. Preferred combinations are • a. Nag7m F358A+A86L+I260A+F342A Tm 51° C. (neurotensin bound) • b. Nag7n F358A+H103A+I260A+F342A Tm 51° C. (neurotensin bound) • Wildtype NTR has a Tm of 35° C. with neurotensin bound.

Molecule | thermostability, 3H-neurotensin (agonist) binding after the heating step | thermostability, heated in the presence of 3H-neurotensin (Ligand(+) format) | Tm (neurotensin bound) [°C]
B1 | small but significant increase in thermostability | – | –
B2 | small but significant increase in thermostability | – | –
B3 | small but significant increase in thermostability | – | –
B4 | small but significant increase in thermostability | – | –
B5 | small but significant increase in thermostability | – | –
B6 | small but significant increase in thermostability | – | –
B7 | small but significant increase in thermostability | – | –
B8 | small but significant increase in thermostability | – | –
B9 | small but significant increase in thermostability | – | –
B10 | small but significant increase in thermostability | improved thermostability | –
B11 | – | – | 51
